The results in this text go back to patent publication US20110189095A1, “CRKL TARGETING PEPTIDES” (The Board of Regents, of the University of Texas System, priority 2008, published 2011).

The target of experiment [1] is T1, CRKL (Homo sapiens, UniProt P46109). Nature of the experiment: Phage binding assay on purified recombinant protein. The arrangement: The open reading frame of full-length CRKL cDNA (Invitrogen) was PCR-amplified and cloned in a pET28a (Novagen) expression vector; His-tag; made in house; host or cells: E. coli BL21. On the procedure: Phage binding assays on purified proteins were carried out as described (Giordano et al. 2001). Recombinant proteins were coated on microtiter wells as previous described (Cardo-Vila et al., 2003; Smith and Scott, 1993). Briefly, proteins were immobilized on microtiter wells overnight at 4° C. 50 μl of 1 μg/ml in PBS. Wells were washed twice with PBS, blocked with PBS containing 3% BSA for 2 hours at room temperature, and incubated with 10^9 T.U. wild-type tumor-homing phage ([…]; SEQ ID NO:1), scrambled phage ([…] (SEQ ID NO:26), […] (SEQ ID NO:27), […] (SEQ ID NO:29), […] (SEQ ID NO:30)), mutant phage ([…] (SEQ ID NO:25), […] (SEQ ID NO:28)), PSI-derived cyclic phage (CNSTFLQEGMPTSAC; SEQ ID NO:23) or fd-tet phage in 50 μl of PBS containing 1.5% BSA. After 1 hour at room temperature, wells were washed ten times with PBS and phage were recovered by bacterial infection. ELISA with polyclonal anti-CKRL confirmed the presence and concentration of the CKRL recombinant proteins on the wells. […] After 3 hours, binding of CKRL to integrins was detected by using an anti-CKRL antibody followed by an HRP-conjugated anti-rabbit IgG. […]

Experiment [2] addresses T1, CRKL. Nature of the experiment: Binding assays with recombinant gst-PSI fusion proteins. An excerpt: FIG. 3A-D: Receptor binding by peptides. FIG. 3A, the recombinant His-tag CRKL (rCRKL), rCRKL-SH3 (N) domain, and rCRKL-SH3 (C) domain bind to the tumor-homing peptide-[…] (SEQ ID NO:1). FIG. 3B, the recombinant His-tag rCRKL, rCRKL-SH3 (N) domain, and rCRKL-SH3 (C) domain bind to the synthetic peptide NSTFLQEGMPTSA (SEQ ID NO:23) corresponding to a region in the PSI domain. FIG. 3C, recombinant gst fusion protein of the entire PSI domain (residues 22-82. SEQ ID NO: 71-[…]), gst-PSI linear (residues 48-62, SEQ ID NO: 72-TNSTFLQEGMPTSAR), gst-PSI cyclic (residues […], SEQ ID NO: 72-CTNSTFLQEGMPTSARC) were generated for binding assays. Both the linear and the cyclic PSI-derived regions bind to CRKL. FIG. 3D, the binding activity of the tumor-homing peptide to rCRKL-SH3 (C) domain is inhibited by the tumor-homing ([…]; SEQ ID NO:1) peptide, by the PSI-derived (NSTFLQEGMPTSA; SEQ ID NO:23) peptide or tumor-homing phage displaying SEQ ID NO:1. Bars represent mean±standard deviation from triplicate wells.
CRKL mutants in the SH3 domain (carboxyl terminal) were generated by PCR mutagenesis. Primer sets were designed to remove 60 bp (Δ1 and Δ2) and 54 bp (Δ3) and maintain the reading frame. For the PSI domain constructs, cyclic and linear peptide forms of the PSI domain were produced. […] Protein-protein interactions were detected by using an antibody against gst.

Experiment [3] relates to DU145 cells. Nature of the experiment: Peptide internalization assay (WST-1 cell viability, annexin-V staining). The format is cell-based, human. Conditions: DU145 cells; measured by cell viability and annexin-V. On the procedure: The internalization capability of the tumor-homing peptide fused through a glycinylglycine bridge to a pro-apoptotic sequence was tested as described Arap et al., 2004; Ellerby et al., 1999; Kolonin et al., 2004; Zurita et al., 2004). The conjugated tumor-homing peptide, […] (SEQ ID NO:67)-D(KLAKLAK)2 or the untargeted control peptide D(KLAKLAK)2 were synthesized and increasing equimolar peptide concentrations were added to the DU145 cells. Cell viability was assayed by the WST-1 reagent (Roche) and annexin-V staining for apoptosis (Zurita et al., 2004; Cardo-Vila et al., 2003). For tumor-homing phage localization studies, cells were incubated with 10^9 T.U. tumor-homing ([…]; SEQ ID NO:1) or a negative control (fd-tet) phage for 6 and 24 hours. Wells were washed with 20 mM glycine to remove non-specific cell surface bound phage and then fixed with 4% paraformaldehyde. The non-permeabilized cells were incubated with rabbit anti-fd bacteriophage antibody (Sigma) for 2 hours at room temperature followed by 1 hour incubation with Cy3-labeled anti-rabbit IgG antibody (Jackson ImmunoResearch). Cells were again fixed with 4% paraformaldehyde and mounted in the presence of DAPI (Vector Laboratories) and images were acquired with an Olympus fluorescence microscope.

The target in experiment [4] is T2, rCRKL-SH2 domain (Homo sapiens, UniProt P46109).
T2 construct: cDNAs corresponding to each of the SH domains were PCR-amplified and cloned into the Sac I and Xho I restriction sites; His-tag; made in house; host or cells: E. coli BL21
Put plainly: Peptide binding assay with recombinant His-tag proteins (ELISA). Conditions: peptide coated on microtiter plates. The procedure:
(§1) Synthetic tumor-homing peptide ([…]; SEQ ID NO:1) or PSI-derived peptide (NSTFLQEGMPTSA; SEQ ID NO:23) were coated on microtiter plates followed by blocking, and washing. The following recombinant His-tag proteins were added to the coated plates: rCRKL, rCRKL-SH2 domain, rCRKL-SH3 (N) domain, and rCRKL-SH3 (C) domain. An unrelated control protein (α2-Heremans-Schmid glycoprotein; AHSG) served as a negative control. The mixtures were incubated, washed, and labeled with the appropriate antibodies. Secondary antibodies conjugated to horse-radish peroxidase (HRP) were added followed by adding TMB substrate (Calbiochem), and analyzed by an automated ELISA reader (Bio-Tek). To determine the inhibitory activity of the tumor-homing peptide, the PSI-derived peptide, or the phage clone displaying the corresponding tumor-homing peptide were incubated with the rCRKL-SH3 (C) domain. Unrelated cyclic peptide sequences and insertless phage (fd-tet) served as negative controls. The admixtures were incubated and added to wells coated with the tumor-homing peptide. After incubation, the wells were washed, labeled with the appropriate antibodies, and processed as above.

The target of experiment [5] is T3, rCRKL-SH3 (N) domain (Homo sapiens, UniProt P46109).
T3 construct: cDNAs corresponding to each of the SH domains were PCR-amplified and cloned into the Sac I and Xho I restriction sites; His-tag; made in house; host or cells: E. coli BL21
The description is as above. Conditions: peptide coated on microtiter plates. On the procedure:
as §1

In experiment [6] the target is T4, rCRKL-SH3 (C) domain (Homo sapiens, UniProt P46109).
T4 construct: cDNAs corresponding to each of the SH domains were PCR-amplified and cloned into the Sac I and Xho I restriction sites; His-tag; made in house; host or cells: E. coli BL21
The description is as above. On the procedure: as §1

Experiment [7] has as its target T5, rCRKL (Homo sapiens, UniProt P46109).
T5 construct: The open reading frame of full-length CRKL cDNA (Invitrogen) was PCR-amplified and cloned in a pET28a (Novagen) expression vector; His-tag; made in house; host or cells: E. coli BL21
The description is as above. Conditions: peptide coated on microtiter plates. The procedure: as §1

Experiment [8] concerns human prostate cancer xenografts (DU145-derived). Nature of the experiment: Therapy in tumor-bearing mice (tumor volume). In kind it is in vivo, nude mice. Conditions: equimolar amounts, systemically administered, vs untreated or vehicle. An excerpt:
Finally, a pilot pre-clinical trial that included four cohorts of size-matched tumor-bearing mice was designed and conducted (FIG. 11). Animals received the following reagents: (i) the synthetic PSI domain-mimic peptide, (ii) the synthetic PSI domain-mimic peptide linked to a pro-apoptotic peptidomimetic (Arap et al., 2004; Ellerby et al., 1999; Kolonin et al., 2004; Zurita et al., 2004) in order to induce targeted apoptosis upon receptor-mediated internalization, (iii) the synthetic pro-apoptotic peptidomimetic alone, or (iv) vehicle alone. All peptides or peptidomimetics were administered at equimolar concentrations.
DU145 tumor-bearing mice were size-matched and divided into individual cohorts (n=4 mice per group). The tumor-homing peptide […] (SEQ ID NO:1) was synthesized fused with the proapoptotic motif D(KLAKLAK)2. Unconjugated peptide […] (SEQ ID NO:1) or D(KLAKLAK)2 served as controls. The synthetic peptides were systemically administered and tumor volumes measured as described (Arap et al., 1998; Arap et al., 2004).

Experiment [9] concerns the target T4, rCRKL-SH3 (C) domain. Nature of the experiment: Inhibition of rCRKL-SH3 (C) domain binding to coated tumor-homing peptide. Conditions: inhibitor pre-incubated with rCRKL-SH3 (C). The procedure: as §1

T1 sequence (P46109 whole entry): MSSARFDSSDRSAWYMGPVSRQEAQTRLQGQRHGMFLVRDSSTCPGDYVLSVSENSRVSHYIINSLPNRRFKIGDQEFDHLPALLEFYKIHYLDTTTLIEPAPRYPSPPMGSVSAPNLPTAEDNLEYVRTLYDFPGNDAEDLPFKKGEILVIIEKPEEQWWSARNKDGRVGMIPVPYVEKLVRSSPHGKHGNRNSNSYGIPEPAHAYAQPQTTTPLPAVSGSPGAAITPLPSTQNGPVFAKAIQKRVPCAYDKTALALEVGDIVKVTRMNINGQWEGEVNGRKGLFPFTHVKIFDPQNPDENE
T4 sequence (P46109 235-296 limits assumed): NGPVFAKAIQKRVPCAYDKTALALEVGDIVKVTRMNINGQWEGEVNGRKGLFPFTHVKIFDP
T2 sequence (P46109 14-102 limits assumed): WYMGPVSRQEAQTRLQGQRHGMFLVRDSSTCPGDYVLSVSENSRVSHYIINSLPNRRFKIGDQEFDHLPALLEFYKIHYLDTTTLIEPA
T3 sequence (P46109 123-183 limits assumed): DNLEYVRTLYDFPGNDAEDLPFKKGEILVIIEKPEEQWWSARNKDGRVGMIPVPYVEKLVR
T5 sequence (P46109 whole entry): as the sequence (P46109 whole entry) above

For the sequence CNSTFLQEGMPTSAC [PSI-derived phage], the “phage binding to recombinant CRKL” value in experiment [1] is listed as “bind”.
Take “TNSTFLQEGMPTSAR (left off: a dimerising Fc or GST; large carriers; small tags and cut ends) [gst-PSI linear, recombinant gst fusion of linear PSI region, residues 48-62]”: in experiment [2], the “binding to CRKL” value is on record as “bind”.
Turning to “YRCTLNSPFFWEDMTHECHA (listed as Homo sapiens) [Peptide 6]”, the internalization result in experiment [3] was “mediates ligand-directed internalization”. Also, the “binding through the SH2 domain” value in [4] is “little to no binding”. Besides, the “binding to rCRKL-SH3 (N) domain” value in experiment [5] is on record as “bind”. Also, the “binding attributes to the CRKL-SH3 (C) domain (site-directed mutagenesis)” value in experiment [6] was “dependent on the Pro residue and on the cyclic Cys-Cys disulfide bridge”. Besides, in [6] (peptide coated on microtiter plates), the “binding to rCRKL-SH3 (C) domain” value is on record as “bind”. The “binding to rCRKL” value in [7] is recorded as “bound”. For the same sequence, the “tumor growth / tumor volume” value is “no differences in tumor volume” in experiment [8] and “no detectable effect” in experiment [8] (listed as PSI domain-mimic peptide). Moreover, in experiment [9], the “inhibition of binding of the tumor-homing peptide to rCRKL-SH3 (C) domain” value is reported as “inhibited”.
Take CTNSTFLQEGMPTSARC [gst-PSI cyclic]: in experiment [2], the “binding to CRKL” value is given as “bind”.
